# Measurements: the supplement of paper PMC6755084
# B1: F1*; the commonest letter at each place (parent)
# chain: GAGACCGCAACTGAAAAGTTGTTATCACTTGTCGTAAGACACTTTGGATGGGTTGAAGTTCTGCACGTAGAAGCAAAAGGC
# Variants of: B1
# Test: fraction ligated after 30 min (ligated reads / total reads); higher = more ligase activity
# Settings: with F1*sub RNA substrate (template-directed ligation), 42 °C
# Procedure, shortened: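 Ligase ribozyme variants were made from oligo-pool templates by PCR amplification, T7 transcription and gel purification. After gel separation, ligated and unligated bands were reverse transcribed with barcoded primers and sequenced on a MiSeq, with core bases filtered at quality ≥20. The fraction ligated for each variant was the number of ligated reads divided by total reads.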
row,Variant,fraction ligated
1,G50A A57G,0.251
2,G50A A57T,0.216
3,G50A A57C,0.0747
4,A56T A57C,0.0772
5,A48C,0.752
6,A48G,0.794
7,A48T,0.768
8,G50A G55T,0.0307
9,G50A G55C,0.0427
10,G50A G55A,0.178
11,G46A G55T,0.783
12,G46A G55A,0.786
13,G46A G55C,0.224
14,T49C G55C,0.0675
15,T49C G55T,0.091
16,T49C G55A,0.335
17,G55C A57G,0.773
18,G55C A57C,0.412
19,G55C A57T,0.632
20,G55A A56G A57T,0.152
21,G55A A56G A57G,0.338
22,G55A A56G A57C,0.131
23,A48G A56G,0.399
24,A48G A56C,0.259

row,Variant,fraction ligated
1,A48G A56T,0.357
2,A48T T49G,0.348
3,A48T T49A,0.565
4,A48T T49C,0.139
5,G50C A56G,0.0166
6,G50C A56C,0.00754
7,G50C A56T,0.0147
8,G46C A56T,0.447
9,G46C A56G,0.315
10,G46C A56C,0.324
11,G46A A57T,0.803
12,G46A A57C,0.793
13,G46A A57G,0.799
14,G47T A57C,0.0653
15,G47T A57T,0.0782
16,G47T A57G,0.101
17,T45G G50A,0.0135
18,T45G G50T,0.0316
19,T45G G50C,0.0186
20,A56G A57C,0.748
21,A56G A57G,0.807
22,A56G A57T,0.383
23,G46C T49G,0.407
24,G46C T49C,0.0853

row,Variant,fraction ligated
1,G46C T49A,0.344
2,A48C A56T,0.289
3,A48C A56G,0.283
4,A48C A56C,0.185
5,T49C G50T,0.714
6,T49C G50A,0.216
7,T49C G50C,0.455
8,G47C A57T,0.0788
9,G47C A57C,0.0685
10,G47C A57G,0.0599
11,G55T A56G A57G,0.0371
12,G55T A56G A57C,0.0609
13,G55T A56G A57T,0.0243
14,T45G A48T,0.187
15,T45G A48G,0.0747
16,T45G A48C,0.122
17,G50T A57C,0.172
18,G50T A57T,0.324
19,G50T A57G,0.526
20,A56C,0.767
21,A56G,0.781
22,A56T,0.803
23,G46A G47T,0.115
24,G46A G47C,0.146

row,Variant,fraction ligated
1,G46A G47A,0.804
2,T49G,0.778
3,T49C,0.731
4,T49A,0.777
5,G47C A56G,0.0569
6,G47C A56T,0.0769
7,G47C A56C,0.0635
8,T49G A57T,0.706
9,T49G A57G,0.734
10,T49G A57C,0.523
11,G47C G55T,0.0996
12,G47C G55A,0.11
13,G47C G55C,0.0788
14,A48C T49G,0.763
15,A48C T49A,0.555
16,A48C T49C,0.335
17,G46T A57G,0.795
18,G46T A57T,0.754
19,G46T A57C,0.726
20,G55A A57T,0.801
21,G55A A57C,0.786
22,G55A A57G,0.833
23,A48C A57C,0.714
24,A48C A57G,0.762

row,Variant,fraction ligated
1,A48C A57T,0.719
2,G55C A56T,0.737
3,G55C A56G,0.843
4,G55C A56C,0.218
5,T45G G55T,0.0383
6,T45G G55A,0.045
7,T45G G55C,0.0194
8,A48T A57T,0.546
9,A48T A57C,0.68
10,A48T A57G,0.787
11,G51C,0.812
12,G51A,0.797
13,G51T,0.792
14,G46A A48T,0.0714
15,G46A A48C,0.675
16,G46A A48G,0.609
17,G47A A56C,0.125
18,G47A A56G,0.098
19,G47A A56T,0.181
20,G47C A48G,0.122
21,G47C A48T,0.257
22,G47C A48C,0.168
23,T45G G47A,0.781
24,T45G G47C,0.194

row,Variant,fraction ligated
1,T45G G47T,0.0452
2,G55T A56C A57C,0.00348
3,G55T A56C A57T,0.0111
4,G55T A56C A57G,0.00397
5,T49A A56C,0.102
6,T49A A56G,0.116
7,T49A A56T,0.209
8,G46C A57T,0.76
9,G46C A57G,0.712
10,G46C A57C,0.778
11,G46A A56C,0.483
12,G46A A56T,0.645
13,G46A A56G,0.487
14,G46T G55A,0.726
15,G46T G55C,0.111
16,G46T G55T,0.482
17,G55A A56G,0.821
18,G55A A56T,0.8
19,G55A A56C,0.729
20,G50A A56C,0.0252
21,G50A A56T,0.0351
22,G50A A56G,0.0277
23,T49G A56G,0.0888
24,T49G A56T,0.191

row,Variant,fraction ligated
1,T49G A56C,0.109
2,A48G G55T,0.686
3,A48G G55A,0.787
4,A48G G55C,0.108
5,G47T G50C,0.048
6,G47T G50T,0.108
7,G47T G50A,0.0507
8,T49C A57C,0.266
9,T49C A57G,0.445
10,T49C A57T,0.3
11,G55C A56G A57T,0.0232
12,G55C A56G A57G,0.0448
13,G55C A56G A57C,0.104
14,G50C,0.424
15,G50A,0.589
16,G50T,0.743
17,T49G G55A,0.688
18,T49G G55T,0.243
19,T49G G55C,0.136
20,G55A,0.822
21,G55T,0.83
22,G55C,0.778
23,A48C G55T,0.5
